The values below come from patent US20040086528A1 (PROGENICS PHARMACEUTICALS, published 2004).

One assay addresses T1, SF162 gp120 (HIV-1 SF162, UniProt P19550 32-502).
T1 construct: domain: gp120; also called SF 162 (B)
Nature of the assay: 125I-MIP-1β competition on activated CD4+ T cells.

Another assay deals with T2, soluble CD4 (UniProt P01730 26-394).
T2 construct: also called sCD4
The experiment in a line: 125I-MIP-1β competition on activated CD4+ T cells.

Protocol for SF162 gp120: (§1) PBMCs were isolated from blood donors by Ficoll-Hypaque centrifugation, and stimulated for 2-3 days with phytohaemagglutnin (5 μg ml⁻¹) and IL-2 (100 U ml⁻¹) (Roche). CD4⁺ T cells were purified from the activated PBMCs by positive selection using anti-CD4 immunomagnetic beads (Dynal Inc.). […] The cells were screened for CCR-5-defective alleles(14), and only cells from wild-type donors were used (except when specified).
(§2) Unlabelled ligand or gp120 (mixed with monoclonal antibodies when appropriate) was added to the cells immediately before radiolabelled ligand was added. Anti-CD4 monoclonal antibodies were added to the cells simultaneously with gp120. These cells were then separated from unbound ligand by centrifugation (60 s, 14, 000 g) through oil (80% silicone oil, Aldrich; 20% mineral oil, Sigma), and the radioactivity in the cell pellet was determined by gamma counting. […] Each experiment was repeated at least twice using cells from different donors.
Protocol for soluble CD4: as §1, §2

B1: chemokine receptor C-C CKR-5 (human) (receptor)
chain: not shown
notes: whole, on cells; also called CCR-5; CCR5
Turning to B1, the binding result is “binds” with SF162 gp120 and “no binding (tested: 50 µg ml^-1)” with soluble CD4.
